# Test results taken from PMC4941522.
# Legend:
# [1] = tested on: Sso10a1 (Sulfolobus solfataricus); assay: EMSA; conditions: TPM buffer conditions; data not shown; EMSA: TPM buffer II (composition not in the material), 69 nM DNA, 10 min, ~23 °C, 1% agarose 0.5x TBE; TPM: 100 mM or 20 mM NaCl
# [2] = tested on: Sso10a2 (Sulfolobus solfataricus); assay: EMSA; conditions: TPM buffer conditions; data not shown; EMSA: TPM buffer II (composition not in the material), 69 nM DNA, 10 min, ~23 °C, 1% agarose 0.5x TBE; TPM: 100 mM or 20 mM NaCl
substance,measurement,setting,value
685 bp DNA substrate (TPM/EMSA),Kd,[1],1 nM
same,Kd,[2],1 nM
